What is called Kd is the free concentration of one partner at which half of the binding sites on the other are occupied at equilibrium, for simple one-to-one binding.

Where two headings read alike, the source gives them in different places.

Here are results for two sequences from PMC4686876.

Data set [1] has as its target T1, interferon-gamma (IFNγ) (human) (UniProt P01579).
T1 sequence: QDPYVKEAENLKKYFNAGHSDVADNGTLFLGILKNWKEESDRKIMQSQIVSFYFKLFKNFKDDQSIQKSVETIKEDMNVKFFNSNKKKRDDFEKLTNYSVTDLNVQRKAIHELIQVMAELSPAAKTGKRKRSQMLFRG
Conditions: N = unnatural base Ds at positions 18, 29, 40; SPR (BIAcore T200, biotinylated aptamer on SA chip), 1x PBS (1 mM KH2PO4, 3 mM Na2HPO4) with 205 mM NaCl final, 0.05% NP-40, pH 7.4, 25 °C; IFNγ 1.25-50 nM; cited from earlier work.

Data set [2] has as its target T1, interferon-gamma (IFNγ) (human). Kind of data set: SPR. Conditions: SPR (BIAcore T200, biotinylated aptamer on SA chip), 1x PBS (1 mM KH2PO4, 3 mM Na2HPO4) with 205 mM NaCl final, 0.05% NP-40, pH 7.4, 25 °C, IFNγ 1.25-50 nM. Background: In SPR one partner is held on a chip, and binding of the other changes the refractive index at the surface.

For “TCCACTCGGGTCATTTANTAATGTAGGTNTGGGCTAGGCNGCTAGTGGA [aptamer 49]”, the Kd in data set [1] is 0.046 nM; in data set [2] (N = unnatural base Ds at positions 18, 29, 40), 0.046 nM. Regarding “CCCGCCCGGGTCCGCGAAGCGGTAGGTNTGGGCTAGGCNGCTGGCGGGCGCGAAGCG [aptamer 57mhGC]”, the Kd in data set [2] (N = unnatural base Ds at positions 28, 39) was 0.033 nM.
